Experimental data as given in article PMC7000413, “CDX-301: a novel medical countermeasure for hematopoietic acute radiation syndrome in mice” (Scientific Reports, 2020).

Biological target: the molecule itself
Experiment: SEC; size exclusion chromatography of purified CDX-301; apparent molecular weight approximately 44,000 Daltons; conditions not given

B1: CDX-301, soluble recombinant human Fms-related tyrosine kinase 3 ligand (Flt3L) (ligand)
chain: TQDCSFQHSPISSDFAVKIRELSDYLLQDYPVTVASNLQDEELCGGLWRLVLAQRWMERLKTVAGSKMQGLLERVNTEIHFVTKCAFQPPPSCLRFVQTNISRLLQETSEQLVALKPWITRQNFSRCLELQCQPDSSTLPPPWSPRPLEATAP
modifications: glycoprotein with 2 potential N-linked (N100, N123) and 5 potential O-linked (S136, S137, T138, S144, T151) glycosylation sites; 3 intramolecular disulfide bonds
notes: human Flt3 ligand, the 153 N-terminal amino acids of the extracellular domain; 3 C-terminal residues of the extracellular domain, the transmembrane domain and the cytoplasmic domain eliminated; mature, secreted protein of 153 amino acids. numbers count on: the mature protein; Non-covalent homodimer; also called rhuFlt3L; Flt3 Ligand; source: manufactured under cGMPs by Celldex Therapeutics
For B1, the “stoichiometry N” value was 2.
